Test [1] deals with HLA-A*24:02. The test can be described thus: IEDB peptide-MHC binding, purified MHC/competitive/radioactivity; filed as Kd, often an IC50 or EC50 that approximates it; ≥ and ≤ were set here for values at or beyond the usual limits of such assays.
Test [2] deals with HLA-A*01:01. The description is as above.
The target in test [3] is HLA-A*23:01. The description is as above.
In test [4] the target is HLA-A*26:01. The description is as above.
Test [5] addresses HLA-A*29:02. Described as above.
For test [6], the target named is HLA-A*30:02. Described as above.
For test [7], the target named is HLA-A*69:01. Briefly: IEDB peptide-MHC binding, purified MHC/direct/fluorescence; filed as Kd, often an IC50 or EC50 that approximates it; ≥ and ≤ were set here for values at or beyond the usual limits of such assays.
Test [8] concerns the target HLA-A*30:01. Briefly: IEDB peptide-MHC binding, purified MHC/competitive/radioactivity; filed as Kd, often an IC50 or EC50 that approximates it; ≥ and ≤ were set here for values at or beyond the usual limits of such assays.
The target in test [9] is HLA-A*02:01. Briefly: IEDB peptide-MHC binding, purified MHC/direct/fluorescence; filed as Kd, often an IC50 or EC50 that approximates it; ≥ and ≤ were set here for values at or beyond the usual limits of such assays.
For test [10], the target named is HLA-A*03:01. Described as above.
Test [11] addresses HLA-A*02:02. The test can be described thus: IEDB peptide-MHC binding, purified MHC/competitive/radioactivity; filed as Kd, often an IC50 or EC50 that approximates it; ≥ and ≤ were set here for values at or beyond the usual limits of such assays. The following applies: source organism: SARS coronavirus Tor2.
Test [12] deals with HLA-A*02:03. The test is described as above. Particulars: source organism: SARS coronavirus Tor2.
The target in test [13] is HLA-A*02:06. Described as above.
Test [14] has as its target HLA-A*01:01. The test can be described thus: IEDB peptide-MHC binding, purified MHC/direct/fluorescence; filed as Kd, often an IC50 or EC50 that approximates it; ≥ and ≤ were set here for values at or beyond the usual limits of such assays. The following applies: source organism: Giardia lamblia ATCC 50803.
Test [15] addresses HLA-B*15:01. The test is described as above. Particulars: source organism: Mycobacterium tuberculosis variant bovis.
Test [16] addresses HLA-B*44:02. The test can be described thus: IEDB peptide-MHC binding, purified MHC/competitive/radioactivity; filed as Kd, often an IC50 or EC50 that approximates it; ≥ and ≤ were set here for values at or beyond the usual limits of such assays. The following applies: source organism: Dengue virus 4 Philippines/H241/1956.
Setting [17] is: source organism: SARS coronavirus Tor2.
Setting [18] is: source organism: Dengue virus 1 Brazil/97-11/1997.
[19] abbreviates: source organism: Vaccinia virus WR.
Setting [20] is: source organism: Dengue virus 4 Philippines/H241/1956.
Setting [21] is: source organism: Dengue virus 2 Jamaica/1409/1983.
[22] abbreviates: source organism: Mycobacterium tuberculosis.
Setting [23] is: source organism: Lassa virus Josiah.
The mark [24] stands for this setting: source organism: Vibrio vulnificus.
The mark [25] stands for this setting: source organism: Encephalitozoon cuniculi.
Setting [26] is: source organism: Mammarenavirus guanaritoense.

As a reminder, the Kd is a measure of binding affinity in units of concentration. Regarding DFGSVGGLF, in test [1] (source organism: Dengue virus 4 Dominica/814669/1981), the Kd was 2640 nM. Consider TNSVIIMAY, for which the Kd in [2] (setting [17]) was not below 25800 nM; in [3] (setting [17]) it was not below 77800 nM; in [1] (setting [17]), not below 77600 nM; in [4] (setting [17]), 17300 nM; in [5] (setting [17]), 84.5 nM; in test [6] (setting [17]), 2120 nM. For TSEIQLTDY, the Kd in [2] (setting [18]) came to 323 nM. In the case of VLCPYMPKV, the Kd in [7] (source organism: West Nile virus) is 1610 nM. As to LRFLAIPPTA, the Kd in [8] (setting [18]) amounted to 3130 nM. Regarding HTSSMRGVYY, the Kd in test [2] (setting [17]) is 58.5 nM; in test [3] (setting [17]) it was not below 70000 nM; in [1] (setting [17]), not below 46800 nM; in [4] (setting [17]), 52.7 nM; in [5] (setting [17]), 17.8 nM; in test [6] (setting [17]), 3.4 nM. Regarding TSRNNHLPA, the Kd in test [8] (source organism: Vaccinia virus Copenhagen) was determined as 15.2 nM. As for KTIWEIPQK, the Kd in [8] (setting [19]) stood at 11.8 nM. Take QGKRTLTPQP: the Kd in [8] (source organism: Dengue virus 3 Martinique/1243/1999) was determined as 1270 nM. For TWLVHKQWF, the results for the Kd in [3] (setting [20]) and in test [1] (setting [20]) were 282 nM and 302 nM, respectively. For EKMEALQRKY, the Kd in test [4] (source organism: Dengue virus 2 16681-PDK53) is 6380 nM. With AWNSLEVEDY, the Kd in test [6] (setting [21]) is 613 nM. In the case of KARNTPFNM, the Kd in test [8] (source organism: Dengue virus 2 Peru/IQT2913/1996) amounted to 169 nM. For KFKLTLPNK, the Kd in test [8] (setting [19]) was 12.1 nM. The sequence YLAENTFVV registered a Kd in [7] (setting [22]) of 15.7 nM. Turning to LSRKTFDTEY, the results for the Kd in test [2] (setting [18]) and in test [6] (setting [18]) were 503 nM and 975 nM, respectively. Take TSETFSMGL: in test [2] (setting [20]), the Kd was 7690 nM. In the case of LTTRNGEPHM, the Kd in [8] (setting [21]) was 13700 nM. As to KARCNHLTK, in test [8] (setting [19]), the Kd is 0.214 nM. As for YSQVNPLTL, the Kd in test [2] (setting [18]) is 1010 nM. As for GGMLVRNPLS, the Kd in test [8] (setting [18]) was 4270 nM. For SKIPGGNMY, the Kd in [6] (setting [18]) was 2450 nM.

In the case of LCLIPTAMAF, in test [3] (setting [20]), the equilibrium dissociation constant (Kd) stood at 1080 nM.

As for INRFTMKHK, the dissociation constant Kd in test [8] (setting [21]) was 7950 nM.

For the sequence FTDENKWKS, the Kd in test [2] (setting [21]) was found to be 5260 nM.

As to YQPSSGCYI, the Kd was 5410 nM in test [3] (setting [23]), 7220 nM in [1] (setting [23]) and 14500 nM in [5] (setting [23]). Turning to RLSDPRFSQ, the results for the Kd in [9] (setting [24]) and in test [7] (setting [24]) were not below 20000 nM and 121 nM, respectively. As to RAIASMIMY, in test [8] (setting [19]), the Kd was found to be 71.1 nM. For GLMWLSYFV, the Kd in test [9] (source organism: SARS-CoV1) is 3190 nM; in test [10] (source organism: SARS-CoV1), not below 33000 nM; in test [7] (source organism: SARS-CoV1) it was 347 nM; in [11], 0.199 nM; in [12], 0.82 nM; in test [13] (setting [17]) it was 0.975 nM. As to VLIDAGLPK, the Kd in test [10] (setting [22]) was found to be 319 nM.

As to MANIFRGSY, in [6] (setting [21]), the Kd was 113 nM. On the same count and under the same terms, the result for AGPVSQHNY reads 23.2 nM. Consider KVDWNQFTY, for which the Kd in [14] was determined as 2 nM. WQGDTGITY gave a Kd in test [15] of 799 nM. Regarding EISNMLNIM, in test [4] (source organism: Dengue virus 1 Singapore/S275/1990), the Kd was 476 nM. Take MWHVTRGAVL: the Kd stood at 1460 nM in [3] (setting [21]) and 1690 nM in test [1] (setting [21]). Regarding HWPKSHTLW, the Kd in test [1] (setting [21]) is 1170 nM. For the sequence EVEDYGFGM, in test [4] (setting [20]), the Kd is 3900 nM. Consider VDYMPVMKRY, for which the Kd in test [6] (setting [20]) is 76.4 nM. As for YDQENPYRTW, the Kd in test [16] is 156 nM. Regarding QVGTYGLNTF, the Kd in test [3] (setting [21]) was found to be 790 nM.

With KVKNHIPNI, in test [8] (setting [19]), the Kd was found to be 0.684 nM. On to FTDPASIAA, for which the Kd in test [2] (setting [21]) came out at 7.26 nM; in test [13] (setting [21]) it was 32.6 nM.

For FMRSISDDA, the values for the Kd in [9] (setting [25]) and in [7] (setting [25]) were 168 nM and not below 20000 nM, respectively.

LFHAFFGAL: the equilibrium dissociation constant (Kd) in test [3] (setting [26]) was 12500 nM; in [1] (setting [26]), not below 31900 nM; in test [5] (setting [26]) it was 3650 nM.

The record behind these values is the Immune Epitope Database (IEDB).
